In article PMC11446282:

Tests used:
[1] = tested on: B55α interactors; test: MS analysis of B55α WT, V228A, I284A, S287A and D340A immunopurifications; format: binding, human; conditions: log2 ratio of interactor abundance, 4 replicates each, normalised to bait B55α; for log2_ratio_D340_WT: B55α D340A vs WT immunopurification; for log2_ratio I284_WT: B55α I284A vs WT immunopurification; for log2_ratio S287_WT: B55α S287A vs WT immunopurification; for log2_ratio V228_WT: B55α V228A vs WT immunopurification
Procedure: Standard cloning techniques were used throughout. Point mutations were introduced by whole plasmid polymerase chain reaction (PCR). All constructs were fully sequenced. Synthetic DNA was purchased from GeneArt, Life Technologies and cloned into pcDNA5/FRT/TO (Invitrogen) expression vector containing YFP, resulting in the indicated YFP fusion proteins. These constructs were transiently transfected into HeLa cells 24 hours before harvesting cells. Cells were lysed in lysis buffer [50 mM tris-HCl (pH 7.5), 50 mM NaCl, 1 mM EDTA, 1 mM […], and 0.1% NP-40]. Complexes were immunoprecipitated at 4°C in lysis buffer with green fluorescent protein (GFP)–Trap (ChromoTek) and washed in lysis buffer. Precipitated protein complexes were washed three times in lysis buffer, eluted in 2× SDS sample buffer, and subjected to Western blotting or MS as indicated.
Pull-downs were analyzed on a Q-Exactive Plus quadrupole or Fusion Orbitrap Lumos mass spectrometer (Thermo Fisher Scientific) equipped with Easy-nLC 1000 or […] (Thermo Fisher Scientific) and nanospray source (Thermo Fisher Scientific).
Static modifications included carbamidomethylcysteine, and variable modifications included oxidized methionine and STY phosphorylation. Searches were filtered using orthogonal measures including mass measurement accuracy (±3 parts per million), Xcorr for charges from +2 to +4, and dCn targeting a <1% false discovery rate at the peptide level. Quantification of LC-MS/MS spectra was performed using MassChroQ ([57]) and the iBAQ method ([58]). All data were analyzed using R 4.3.0. Missing values were imputed from a normal distribution. […] In each dataset, the abundance of the protein of interest was normalized to be equal across all samples. Statistical analyses were done using a two-tailed Student’s t test.

[2] = tested on: PP2A-B55α; test: Single alanine mutational scan, YFP-tagged interactors immunoprecipitated from HeLa cells, Western blot; format: binding, human; conditions: single alanine mutant of YFP-tagged ZDS1

Molecule	log2_ratio_D340_WT [1]	log2_ratio I284_WT [1]	log2_ratio S287_WT [1]	log2_ratio V228_WT [1]	Experimental % binding [2] [%]
ENSA_HUMAN (protein, UniProt O43768 2-121, looked up) Alpha-endosulfine: SQKQEEENPAEETGEEKQDTQEKEGILPERAEEAKLKAKYPSLGQKPGGSDFLMKRLQKGQKYFDSGDYNMAKAKMKNKQLPSAGPDKNLVTGDHIPTPQDLPQRKSSLVTSKLAGGQVE	-2.08	-0.42	0.42	-1.31	
ZDS1 L863: ZDS1, L863 to alanine (protein, UniProt P50111 1-915, looked up, variant L863A) Protein ZDS1: MSNRDNESMLRTTSSDKAIASQRDKRKSEVLIAAQSLDNEIRSVKNLKRLSIGSMDLLIDPELDIKFGGESSGRRSWSGTTSSSASMPSDTTTVNNTRYSDPTPLENLHGRGNSGIESSNKTKQGNYLGIKKGVHSPSRKLNANVLKKNLLWVPANQHPNVKPDNFLELVQDTLQNIQLSDNGEDNDGNSNENNDIEDNGEDKESQSYENKENNTINLNRGLSRHGNASLIRRPSTLRRSYTEFDDNEDDDNKGDSASETVNKVEERISKIKERPVSLRDITEELTKISNSAGLTDNDAITLARTLSMAGSYSDKKDQPQPEGHYDEGDIGFSTSQANTLDDGEFASNMPINNTMTWPERSSLRRSRFNTYRIRSQEQEKEVEQSVDEMKNDDEERLKLTKNTIKVEIDPHKSPFRQQDEDSENMSSPGSIGDFQDIYNHYRQSSGEWEQEMGIEKEAEEVPVKVRNDTVEQDLELREGTTDMVKPSATDDNKETKRHRRRNGWTWLNNKMSREDDNEENQGDDENEENVDSQRMELDNSKKHYISLFNGGEKTEVSNKEEMNNSSTSTATSQTRQKIEKTFANLFRRKPHHKHDASSSPSSSPSSSPSIPNNDAVHVRVRKSKKLGNKSGREPVEPIVLRNRPRPHRHHHSRHGSQKISVKTLKDSQPQQQIPLQPQLEGAIEIEKKEESDSESLPQLQPAVSVSSTKSNSRDREEEEAKKKNKKRSNTTEISNQQHSKHVQKENTDEQKAQLQAPAQEQVQTSVPVQASAPVQNSAPVQTSAPVEASAQTQAPAAPPLKHTSILPPRKLTFADVKKPDKPNSPVQFTDSAFGFPLPLLTVSTVIMFDHRLPINVERAIYRASHLKLSNSKRGLREQVLLSNFMYAYLNLVNHTLYMEQVAHDKEQQQQQQQQP					110
AIFM2_HUMAN (protein, UniProt Q9BRQ8 2-373, looked up) Ferroptosis suppressor …: GSQVSVESGALHVVIVGGGFGGIAAASQLQALNVPFMLVDMKDSFHHNVAALRASVETGFAKKTFISYSVTFKDNFRQGLVVGIDLKNQMVLLQGGEALPFSHLILATGSTGPFPGKFNEVSSQQAAIQAYEDMVRQVQRSRFIVVVGGGSAGVEMAAEIKTEYPEKEVTLIHSQVALADKELLPSVRQEVKEILLRKGVQLLLSERVSNLEELPLNEYREYIKVQTDKGTEVATNLVILCTGIKINSSAYRKAFESRLASSGALRVNEHLQVEGHSNVYAIGDCADVRTPKMAYLAGLHANIAVANIVNSVKQRPLQAYKPGALTFLLSMGRNDGVGQISGFYVGRLMVRLTKSRDLFVSTSWKTMRQSPP	-0.14	-0.15	0.33	-0.53	
2ABA_HUMAN (protein, UniProt P63151 2-447, looked up) Serine/threonine-protein …: AGAGGGNDIQWCFSQVKGAVDDDVAEADIISTVEFNHSGELLATGDKGGRVVIFQQEQENKIQSHSRGEYNVYSTFQSHEPEFDYLKSLEIEEKINKIRWLPQKNAAQFLLSTNDKTIKLWKISERDKRPEGYNLKEEDGRYRDPTTVTTLRVPVFRPMDLMVEASPRRIFANAHTYHINSISINSDYETYLSADDLRINLWHLEITDRSFNIVDIKPANMEELTEVITAAEFHPNSCNTFVYSSSKGTIRLCDMRASALCDRHSKLFEEPEDPSNRSFFSEIISSISDVKFSHSGRYMMTRDYLSVKIWDLNMENRPVETYQVHEYLRSKLCSLYENDCIFDKFECCWNGSDSVVMTGSYNNFFRMFDRNTKRDITLEASRENNKPRTVLKPRKVCASGKRKKDEISVDSLDFNKKILHTAWHPKENIIAVATTNNLYIFQDKVN	0.00	0.00	0.00	0.00	
ARP19_HUMAN (protein, UniProt P56211 2-112, looked up) cAMP-regulated phosphoprotein …: SAEVPEAASAEEQKEMEDKVTSPEKAEEAKLKARYPHLGQKPGGSDFLRKRLQKGQKYFDSGDYNMAKAKMKNKQLPTAAPDKTEVTGDHIPTPQDLPQRKPSLVASKLAG	-2.01	-0.06	0.27	-0.89	
IER2_HUMAN (protein, UniProt Q9BTL4 1-223, looked up) Immediate early response gene …: MEVQKEAQRIMTLSVWKMYHSRMQRGGLRLHRSLQLSLVMRSARELYLSAKVEALEPEVSLPAALPSDPRLHPPREAESTAETATPDGEHPFPEPMDTQEAPTAEETSACCAPRPAKVSRKRRSSSLSDGGDAGLVPSKKARLEEKEEEEGASSEVADRLQPPPAQAEGAFPNLARVLQRRFSGLLNCSPAAPPTAPPACEAKPACRPADSMLNVLVRAVVAF	-8.18	-0.03	0.35	-2.82	
IER5_HUMAN (protein, UniProt Q5VY09 1-327, looked up) Immediate early response gene …: MEFKLEAHRIVSISLGKIYNSRVQRGGIKLHKNLLVSLVLRSARQVYLSDPCPGLYLAGPAGTPAPPPQQQPGEPAAGPPAGWGEPPPPAARASWPETEPQPERSSVSDAPRVGDEVPVATVTGVGDVFQGGEADATEAAWSRVEGPRQAAAREAEGTAGGWGVFPEVSRAARRPCGCPLGGEDPPGTPAATPRAACCCAPQPAEDEPPAPPAVCPRKRCAAGVGGGPAGCPAPGSTPLKKPRRNLEQPPSGGEDDDAEEMETGNVANLISIFGSSFSGLLRKSPGGGREEEEGEESGPEAAEPGQICCDKPVLRDMNPWSTAIVAF	-7.50	0.57	-6.37	-5.72	
FOXC1_HUMAN (protein, UniProt Q12948 1-553, looked up) Forkhead box protein C1: MQARYSVSSPNSLGVVPYLGGEQSYYRAAAAAAGGGYTAMPAPMSVYSHPAHAEQYPGGMARAYGPYTPQPQPKDMVKPPYSYIALITMAIQNAPDKKITLNGIYQFIMDRFPFYRDNKQGWQNSIRHNLSLNECFVKVPRDDKKPGKGSYWTLDPDSYNMFENGSFLRRRRRFKKKDAVKDKEEKDRLHLKEPPPPGRQPPPAPPEQADGNAPGPQPPPVRIQDIKTENGTCPSPPQPLSPAAALGSGSAAAVPKIESPDSSSSSLSSGSSPPGSLPSARPLSLDGADSAPPPPAPSAPPPHHSQGFSVDNIMTSLRGSPQSAAAELSSGLLASAAASSRAGIAPPLALGAYSPGQSSLYSSPCSQTSSAGSSGGGGGGAGAAGGAGGAGTYHCNLQAMSLYAAGERGGHLQGAPGGAGGSAVDDPLPDYSLPPVTSSSSSSLSHGGGGGGGGGGQEAGHHPAAHQGRLTSWYLNQAGGDLGHLASAAAAAAAAGYPGQQQNFHSVREMFESQRIGLNNSPVNGNSSCQMAFPSSQSLYRTSGAFVYDCSKF	-5.21	-3.45	0.53	-2.65	
SIK2_HUMAN (protein, UniProt Q9H0K1 1-926, looked up) Serine/threonine-protein …: MVMADGPRHLQRGPVRVGFYDIEGTLGKGNFAVVKLGRHRITKTEVAIKIIDKSQLDAVNLEKIYREVQIMKMLDHPHIIKLYQVMETKSMLYLVTEYAKNGEIFDYLANHGRLNESEARRKFWQILSAVDYCHGRKIVHRDLKAENLLLDNNMNIKIADFGFGNFFKSGELLATWCGSPPYAAPEVFEGQQYEGPQLDIWSMGVVLYVLVCGALPFDGPTLPILRQRVLEGRFRIPYFMSEDCEHLIRRMLVLDPSKRLTIAQIKEHKWMLIEVPVQRPVLYPQEQENEPSIGEFNEQVLRLMHSLGIDQQKTIESLQNKSYNHFAAIYFLLVERLKSHRSSFPVEQRLDGRQRRPSTIAEQTVAKAQTVGLPVTMHSPNMRLLRSALLPQASNVEAFSFPASGCQAEAAFMEEECVDTPKVNGCLLDPVPPVLVRKGCQSLPSNMMETSIDEGLETEGEAEEDPAHAFEAFQSTRSGQRRHTLSEVTNQLVVMPGAGKIFSMNDSPSLDSVDSEYDMGSVQRDLNFLEDNPSLKDIMLANQPSPRMTSPFISLRPTNPAMQALSSQKREVHNRSPVSFREGRRASDTSLTQGIVAFRQHLQNLARTKGILELNKVQLLYEQIGPEADPNLAPAAPQLQDLASSCPQEEVSQQQESVSTLPASVHPQLSPRQSLETQYLQHRLQKPSLLSKAQNTCQLYCKEPPRSLEQQLQEHRLQQKRLFLQKQSQLQAYFNQMQIAESSYPQPSQQLPLPRQETPPPSQQAPPFSLTQPLSPVLEPSSEQMQYSPFLSQYQEMQLQPLPSTSGPRAAPPLPTQLQQQQPPPPPPPPPPRQPGAAPAPLQFSYQTCELPSAASPAPDYPTPCQYPVDGAQQSDLTGPDCPRSPGLQEAPSSYDPLALSELPGLFDCEMLDAVDPQHNGYVLVN	2.13	-0.65	-1.90	-3.24	
